{"source": "paper PMC4381051", "binders": {"B1": {"name": "random 12 bp DNA (dsDNA)", "DNA 1": "GTACCACGGTAG", "DNA 2": "CTACCGTGGTAC"}, "B2": {"name": "random 12 bp DNA, biotinylated (dsDNA)", "DNA 1": "GTACCACGGTAG", "DNA 2": "CTACCGTGGTAC"}, "B3": {"name": "poly-GC 12 bp DNA (dsDNA)", "DNA 1": "GCGCGCGCGCGC", "DNA 2": "GCGCGCGCGCGC"}, "B4": {"name": "poly-AT 12 bp DNA (dsDNA)", "DNA 1": "ATATATATATAT", "DNA 2": "ATATATATATAT"}}, "key": {"[1]": {"biological_target": "T1, Mst77F WT (UniProt P16909 1-215)", "T1 sequence": "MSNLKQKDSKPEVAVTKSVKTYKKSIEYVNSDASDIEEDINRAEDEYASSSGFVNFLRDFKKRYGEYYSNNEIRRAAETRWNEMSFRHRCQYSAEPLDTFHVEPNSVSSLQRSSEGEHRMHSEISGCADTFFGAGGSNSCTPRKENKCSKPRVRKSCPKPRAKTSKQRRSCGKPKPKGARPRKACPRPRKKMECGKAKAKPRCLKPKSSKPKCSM", "test": "FP"}, "[2]": {"biological_target": "T2, Mst77F CTD* (UniProt P16909, CTD sequence randomized)", "T2 sequence": "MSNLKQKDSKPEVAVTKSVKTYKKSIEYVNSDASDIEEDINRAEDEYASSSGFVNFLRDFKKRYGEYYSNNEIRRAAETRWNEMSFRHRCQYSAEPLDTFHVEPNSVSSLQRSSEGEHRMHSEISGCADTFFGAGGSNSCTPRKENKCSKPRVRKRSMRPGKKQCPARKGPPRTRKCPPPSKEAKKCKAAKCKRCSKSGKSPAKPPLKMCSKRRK", "test": "FP"}, "[3]": {"biological_target": "T3, Mst77F Δ110C (UniProt P16909 1-105)", "T3 sequence": "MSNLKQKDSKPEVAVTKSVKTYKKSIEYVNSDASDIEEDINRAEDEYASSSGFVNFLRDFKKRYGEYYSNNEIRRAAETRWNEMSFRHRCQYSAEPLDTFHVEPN", "test": "FP"}, "[4]": {"biological_target": "T4, Mst77F Δ110C;Mst77F Δ100N (Drosophila melanogaster?;Drosophila …, UniProt P16909;P16909 1-105;101-215, |)", "T4 sequence 1": "T3 sequence", "T4 sequence 2": "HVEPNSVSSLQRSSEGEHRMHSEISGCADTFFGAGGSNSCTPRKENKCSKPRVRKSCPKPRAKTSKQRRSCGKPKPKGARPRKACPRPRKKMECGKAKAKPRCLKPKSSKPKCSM", "test": "pull-down"}, "[5]": {"biological_target": "T3, Mst77F Δ110C", "test": "pull-down"}, "[6]": {"biological_target": "T1, Mst77F WT", "test": "FP", "remark": "listed apart in the source"}}, "note": "Where two headings read alike, the source gives them in different places.", "data": [{"binder": "B1", "values": [{"measurement": "Kd", "setting": "[1]", "value": "110 ± 50", "unit": "nM"}, {"measurement": "Kd", "setting": "[2]", "value": "60 ± 10", "unit": "nM"}, {"measurement": "binding result", "setting": "[3]", "value": "no binding"}]}, {"binder": "B2", "values": [{"measurement": "binding result", "setting": "[4]", "value": "binds"}, {"measurement": "binding result", "setting": "[5]", "value": "no binding"}]}, {"binder": "B3", "values": [{"measurement": "Kd", "setting": "[6]", "value": "170 ± 60", "unit": "nM"}]}, {"binder": "B4", "values": [{"measurement": "Kd", "setting": "[6]", "value": "70 ± 30", "unit": "nM"}]}]}
